B1: ESEMIKFASYY (peptide)
peptide: ESEMIKFASYY
B2: TTDDTTAMASAS (peptide)
peptide: TTDDTTAMASAS
B3: VDPASNTY (peptide)
peptide: VDPASNTY
B4: HLKILSPIY (peptide)
peptide: HLKILSPIY
B5: STIRGELFF (peptide)
peptide: STIRGELFF
B6: QLDSAVKNLY (peptide)
peptide: QLDSAVKNLY
B7: TSRAANIPGY (peptide)
peptide: TSRAANIPGY
B8: AFDDIATYF (peptide)
peptide: AFDDIATYF
B9: QLDSTLDSY (peptide)
peptide: QLDSTLDSY
B10: FPAPPAHWFY (peptide)
peptide: FPAPPAHWFY
B11: AADSNPSEL (peptide)
peptide: AADSNPSEL
B12: DTEFHGGLHY (peptide)
peptide: DTEFHGGLHY
B13: KPSAVKDSIY (peptide)
peptide: KPSAVKDSIY
B14: NFSDLVFTY (peptide)
peptide: NFSDLVFTY
B15: KEVDPAGHSYI (peptide)
peptide: KEVDPAGHSYI
B16: TTSSAISWILY (peptide)
peptide: TTSSAISWILY
B17: EVYDGREHSAY (peptide)
peptide: EVYDGREHSAY
B18: SSDPKAVMF (peptide)
peptide: SSDPKAVMF
B19: FTSDTGLEY (peptide)
peptide: FTSDTGLEY
B20: SSDNYEHWLY (peptide)
peptide: SSDNYEHWLY
B21: LTEKSHIRY (peptide)
peptide: LTEKSHIRY
B22: ASDLEPRELLSY (peptide)
peptide: ASDLEPRELLSY
B23: ELCPLPGTSAY (peptide)
peptide: ELCPLPGTSAY
B24: YSDLHTPGRY (peptide)
peptide: YSDLHTPGRY
B25: YEDHFPLLF (peptide)
peptide: YEDHFPLLF
B26: QTDVERIKDTY (peptide)
peptide: QTDVERIKDTY
B27: SITDVDFIY (peptide)
peptide: SITDVDFIY

27 molecules from patent publication US20200087364A1 (IMMATICS BIOTECHNOLOGIES, published 2020) can be followed below.

The assay has as its target T1, HLA-A*01:01 (human).
T1 construct: MHC class I monomer first loaded with a UV-sensitive peptide (not identified) that is cleaved by UV irradiation and exchanged for the tested peptide; captured on streptavidin plates, detected with anti-β2m; also called peptide-receptive MHC molecules
The experiment in a line: UV-ligand exchange, anti-b2m ELISA. An outline of the steps:
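Peptide–MHC complexes made by UV-ligand exchange of a UV-cleavable peptide; exchange yield measured by ELISA on streptavidin-coated plates, samples diluted 100-fold, 1 h 37 °C. Detection with 2 ug/ml HRP anti-β2m, TMB, A450; refolded HLA-A*02:01/MLA-001 monomer standards 15-500 ng/ml.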
In general terms: In an ELISA, binding on a coated surface is turned into a signal by an enzyme label.
In the case of B1, the peptide exchange yield is more than 75%. On to B2, for which the peptide exchange yield lay in the range of 20 to 50%. B3 registered a peptide exchange yield of 20 to 50%. The molecule B4 yielded a peptide exchange yield of 50 to 75%. As for B5, the figure is 20 to 50%; as for B6, 50 to 75%; as for B7, 10 to 20%. The molecule B8 registered a peptide exchange yield of 20 to 50%.

In the case of B9, the peptide exchange yield was 50 to 75%.

In turn, B10 registered a peptide exchange yield of 20 to 50%. As to B11, the peptide exchange yield is 20 to 50%.

In turn, B12 returned a peptide exchange yield of 50 to 75%.

As for B13, the peptide exchange yield was in the range of 20 to 50%. In turn, B14 had a peptide exchange yield of 20 to 50%. Consider B15, for which the peptide exchange yield was 20 to 50%.

B16 showed a peptide exchange yield of 50 to 75%.

In turn, B17 came in with a peptide exchange yield of 20 to 50%. For B18 the value was 20 to 50%; for B19, more than 75%; for B20, more than 75%. With B21, the peptide exchange yield was 50 to 75%. As for B22, the peptide exchange yield was in the range of 50 to 75%. Molecule B23 yielded a peptide exchange yield of 20 to 50%.

In turn, B24 registered a peptide exchange yield of 50 to 75%. On to B25, for which the peptide exchange yield lay within 20 to 50%. Take B26: the peptide exchange yield is 50 to 75%. For B27 the value was 20 to 50%.
